Test results as given in PMC6265464.

Legend:
[1] = molecular target: full-length 3× Flag-tagged R192F hFEN1 (human) (UniProt P39748); assay: co-IP
[2] = molecular target: hFEN1 D181A/R192F (1-333) (Homo sapiens, UniProt P39748 1-333, D181A;R192F); assay: X-ray crystallography
Chain of hFEN1 D181A/R192F (1-333) (P39748 1-333 D181A/R192F): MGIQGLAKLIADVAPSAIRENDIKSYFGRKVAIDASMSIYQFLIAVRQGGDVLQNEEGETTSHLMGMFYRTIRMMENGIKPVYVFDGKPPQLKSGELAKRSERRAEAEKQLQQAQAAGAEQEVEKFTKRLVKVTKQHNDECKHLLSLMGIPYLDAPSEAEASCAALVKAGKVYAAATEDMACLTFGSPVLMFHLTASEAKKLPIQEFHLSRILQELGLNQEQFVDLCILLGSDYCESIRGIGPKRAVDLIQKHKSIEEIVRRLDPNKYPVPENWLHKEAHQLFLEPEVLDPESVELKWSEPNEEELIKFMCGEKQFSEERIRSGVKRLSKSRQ

Chain of full-length 3× Flag-tagged R192F hFEN1 (human) (P39748 whole entry R192F): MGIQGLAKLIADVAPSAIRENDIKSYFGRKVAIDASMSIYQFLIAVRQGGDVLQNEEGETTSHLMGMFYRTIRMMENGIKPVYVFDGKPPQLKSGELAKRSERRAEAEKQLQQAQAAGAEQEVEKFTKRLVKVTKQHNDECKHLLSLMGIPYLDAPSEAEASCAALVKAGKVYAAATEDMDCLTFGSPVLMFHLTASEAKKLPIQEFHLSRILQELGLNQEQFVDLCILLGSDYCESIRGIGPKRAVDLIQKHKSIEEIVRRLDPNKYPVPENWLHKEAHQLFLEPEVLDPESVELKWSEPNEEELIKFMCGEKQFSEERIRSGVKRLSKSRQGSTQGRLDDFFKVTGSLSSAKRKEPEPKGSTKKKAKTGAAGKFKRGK

Question: With “Cyclin E (from UniProt P24864 1-410) (natural protein)” as the molecule, how does the percent lower interaction than with wild-type hFEN1 [1] read?
Answer: 70%

Question: Which percent lower interaction than with wild-type hFEN1 [1] does the source give for “CDK2 (from UniProt P24941 1-298) (enzyme)” here?
Answer: 40%

B1: double-flap DNA (D181A/R192F crystal) (dsDNA)
DNA 1: CCTCTGCCTCAAGACGGG
DNA 2: GCCCGTCC
DNA 3: ACTTTGAGGCAGAG
Question: Does B1 bind [2]?
Answer: binds
